For this assay, the target named is T1, FG-N, MGT-Nsp1(48–172)-… (S. cerevisiae).
T1 construct: added N-terminal residues; Nsp1, FG nucleoporin, N-terminal Asn-rich segment of low charge with irregularly spaced FG repeats, residues 48-172; Isotope-labelled for NMR; source: E. coli BL21DE3 Gold, purified (8 M urea throughout, Talon resin); also observed inside living E. coli
Description: NMR titration; HSQC test of reversibility in buffer A; FG-N 50 μM, Kap95 added to 25 μM, then diluted with more FG-N. The note with it: both partners purified.

B1: Kap95 (natural protein, S. cerevisiae)
chain: MSTAEFAQLLENSILSPDQNIRLTSETQLKKLSNDNFLQFAGLSSQVLIDENTKLEGRILAALTLKNELVSKDSVKTQQFAQRWITQVSPEAKNQIKTNALTALVSIEPRIANAAAQLIAAIADIELPHGAWPELMKIMVDNTGAEQPENVKRASLLALGYMCESADPQSQALVSSSNNILIAIVQGAQSTETSKAVRLAALNALADSLIFIKNNMEREGERNYLMQVVCEATQAEDIEVQAAAFGCLCKIMSLYYTFMKPYMEQALYALTIATMKSPNDKVASMTVEFWSTICEEEIDIAYELAQFPQSPLQSYNFALSSIKDVVPNLLNLLTRQNEDPEDDDWNVSMSAGACLQLFAQNCGNHILEPVLEFVEQNITADNWRNREAAVMAFGSIMDGPDKVQRTYYVHQALPSILNLMNDQSLQVKETTAWCIGRIADSVAESIDPQQHLPGVVQACLIGLQDHPKVATNCSWTIINLVEQLAEATPSPIYNFYPALVDGLIGAANRIDNEFNARASAFSALTTMVEYATDTVAETSASISTFVMDKLGQTMSVDENQLTLEDAQSLQELQSNILTVLAAVIRKSPSSVEPVADMLMGLFFRLLEKKDSAFIEDDVFYAISALAASLGKGFEKYLETFSPYLLKALNQVDSPVSITAVGFIADISNSLEEDFRRYSDAMMNVLAQMISNPNARRELKPAVLSVFGDIASNIGADFIPYLNDIMALCVAAQNTKPENGTLEALDYQIKVLEAVLDAYVGIVAGLHDKPEALFPYVGTIFQFIAQVAEDPQLYSEDATSRAAVGLIGDIAAMFPDGSIKQFYGQDWVIDYIKRTRSGQLFSQATKDTARWAREQQKRQLSL
notes: Kap95, nuclear transport factor; also called TF; transport factor; source: prepared as previously described (Tetenbaum-Novatt et al., 2012)
As for B1, the binding result is reported as “binds”.

The record behind these values is paper PMC4621360 (eLife, 2015).
